Consider 7 proteins from US11505811B2, “Method for the preparation of 2,4-dihydroxybutyrate” (ADISSEO FRANCE S.A.S., priority 2012, dated 2022).

Settings in all cases: other: pH 7, 37° C., 0.25 mM NADH
Substrate in series [1]: CC(=O)C(=O)O
Put plainly: OHB/pyruvate reductase assay, Gs-Ldh. In kind it is biochemical, Geobacillus stearothermophilus. The text has this:
(§1) The genes coding for (L)-malate dehydrogenase in Escherichia coli, Ec-mdh (SEQ ID NO: 1), (D)-lactate dehydrogenase in E. coli, Ec-ldhA (SEQ ID NO: 3), (L)-lactate dehydrogenase of Lactococcus lactis, Ll-ldhA (SEQ ID NO: 5), (L)-lactate dehydrogenase of Bacillus subtilis, Bs-ldh (SEQ ID NO: 7), (L)-lactate dehydrogenase of Geobacillus stearothermophilus, Gs-ldh (SEQ ID NO: 9), the two isoforms of the (L)-lactate dehydrogenase of Oryctalagus cuniculus, Oc-ldhA (SEQ ID NO: 11 and SEQ ID NO: 13), were amplified by PCR using the high-fidelity polymerase Phusion™ (Fermentas) and the primers listed in Table 1. Genomic DNAs of E. coli MG1655, L. lactis IL1403, and B. subtilis strain 168 were used as the template. The genes Oc-ldhA, and Gs-ldh were codon-optimized for expression in E. coli and synthesized by MWG Eurofins. The primers introduced restriction sites (Table 1) upstream of the start codon and downstream of the stop codon, respectively, facilitating the ligation of the digested PCR products into the corresponding sites of the pET28a+ (Novagen) expression vector using T4 DNA ligase (Fermentas). Ligation products were transformed into E. coli DH5a cells (NEB). […]

Substrate in series [2]: O=C(O)C(=O)CCO
Put plainly: OHB/pyruvate reductase assay, Gs-Ldh. The class given is biochemical, Geobacillus stearothermophilus.
Text: as §1

Substrate in series [3]: O=C(O)CC(=O)C(=O)O
Put plainly: OHB/oxaloacetate reductase assay (NADH oxidation at 340 nm), Ec-Mdh wild type. The class given is biochemical, Escherichia coli.
Text: as §1

Substrate in series [4]: O=C(O)C(=O)CCO
In words: OHB/oxaloacetate reductase assay, Ec-Mdh R81A M85Q I12V. In kind it is biochemical, Escherichia coli. The method, then: (§2) Enzymatic assays: The reaction mixture contained 60 mM Hepes (pH 7), 50 mM potassium chloride, 5 mM MgCl2, 0.25 mM NADH, (optionally 5 mM fructose-1,6-bisphosphate) (all products from Sigma), and appropriate amounts of purified malate or lactate dehydrogenase or cell extract. Reactions were started by adding appropriate amounts of 2-oxo-4-hydroxybutyrate (OHB), pyruvate, or oxaloacetate (OAA). Enzymatic assays were carried out at 37° C. in 96-well flat bottomed microtiter plates in a final volume of 250 μL. The reactions were followed by the characteristic absorption of NADH at 340 nm (εNADH=6.22 mM^−1 cm^−1) in a microplate reader (BioRad 680XR).
Site-directed mutagenesis of the mdh gene from E. coli was carried out as described in Example 2 using the primers listed in Table 5. Plasmid pET28-Ec-mdh was used as the template.
Mutant enzymes were expressed, purified and tested for OHB and oxaloacetate reductase activity as described in Example 1. […] The mutation R81A in Ec-Mdh was combined with additional changes in the protein sequence.

Substrate in series [5]: CC(=O)C(=O)O
Put plainly: OHB/pyruvate reductase assay, Ec-LdhA. In kind it is biochemical, Escherichia coli.
Text: as §1

Substrate in series [6]: O=C(O)C(=O)CCO
In words: OHB/pyruvate reductase assay, Ec-LdhA. In kind it is biochemical, Escherichia coli.
Text: as §1

Substrate in series [7]: CC(=O)C(=O)O
Put plainly: OHB/pyruvate reductase assay, Ll-Ldh wild type. The class given is biochemical, Lactococcus lactis.
Text: as §1

Substrate in series [8]: CC(=O)C(=O)O
Put plainly: OHB/pyruvate reductase assay, Ll-LdhA Q85N. The class given is biochemical, Lactococcus lactis. Here is the method:
as §2
(§3) Site-directed mutagenesis of the L. lactis ldhA gene was carried out using the pET28-Ll-ldhA plasmid as the template. Point mutations to change the amino acid sequence were introduced by PCR (Phusion 1U, HF buffer 20% (v/v), dNTPs 0.2 mM, direct and reverse primers 0.04 μM each, template plasmid 30-50 ng, water) using the oligonucleotide pairs listed in Table 3. The genes mutated by PCR contained a new restriction site listed in Table 3 (introduced using silent mutations) in addition to the functional mutation to facilitate identification of mutated clones. The PCR products were digested by DpnI at 37° C. for 1 h to remove template DNA, and transformed into competent E. coli DH5α (NEB) cells. […]

Substrate in series [9]: O=C(O)C(=O)CCO
In words: OHB/pyruvate reductase assay, Ll-LdhA Q85N. The class given is biochemical, Lactococcus lactis. The method, then:
as §2, §3

Substrate in series [10]: CC(=O)C(=O)O
In words: OHB/pyruvate reductase assay, Ll-LdhA Q85N I226V. The class given is biochemical, Lactococcus lactis. The method, then:
as §2, §3

Substrate in series [11]: O=C(O)C(=O)CCO
In words: OHB/pyruvate reductase assay, Ll-LdhA Q85N I226V. In kind it is biochemical, Lactococcus lactis. Here is the method: as §2, §3

Positions count from the first letter of the chain named. Numbers in names are those of the source.

B1: Geobacillus stearothermophilus (L)-lactate dehydrogenase Gs-Ldh, SEQ ID NO: 10 (Geobacillus stearothermophilus) (protein)
chain: MKNNGGARVVVIGAGFVGASYVFALMNQGIADEIVLIDANESKAIGDAMDFNHGKVFAPKPVDIWHGDYDDCRDADLVVICAGANQKPGETRLDLVDKNIAIFRSIVESVMASGFQGLFLVATNPVDILTYATWKFSGLPHERVIGSGTILDTARFRFLLGEYFSVAPQNVHAYIIGEHGDTELPVWSQAYIGVMPIRKLVESKGEEAQKDLERIFVNVRDAAYQIIEKKGATYYGIAMGLARVTRAILHNENAILTVSAYLDGLYGERDVYIGVPAVINRNGIREVIEIELNDDEKNRFHHSAATLKSVLARAFTR
notes: made in house; host or cells: E. coli BL21 (DE3) star
As for B1, the Km in series [1] is 1200 µM; in [2], 1300 µM.

B2: Escherichia coli (L)-malate dehydrogenase Ec-Mdh, wild type, SEQ ID NO: 2 (Escherichia coli K-12) (protein)
chain: MKVAVLGAAGGIGQALALLLKTQLPSGSELSLYDIAPVTPGVAVDLSHIPTAVKIKGFSGEDATPALEGADVVLISAGVARKPGMDRSDLFNVNAGIVKNLVQQVAKTCPKACIGIITNPVNTTVAIAAEVLKKAGVYDKNKLFGVTTLDIIRSNTFVAELKGKQPGEVEVPVIGGHSGVTILPLLSQVPGVSFTEQEVADLTKRIQNAGTEVVEAKAGGGSATLSMGQAAARFGLSLVRALQGEQGVVECAYVEGDGQYARFFSQPLLLGKNGVEERKSIGTLSAFEQNALEGMLDTLKKDIALGEEFVNK
notes: as for B1
Take B2: in series [3], the Km is 40 µM.

B3: Escherichia coli malate dehydrogenase Ec-Mdh variant R81A M85Q I12V, SEQ ID No. 108 (Escherichia coli K-12; I12V/M85Q/R81A) (protein)
chain: B2 chain with I12V, R81A, M85Q
With B3, the Km in series [4] amounted to 15000 µM.

B4: Escherichia coli (D)-lactate dehydrogenase Ec-LdhA, SEQ ID NO: 4 (Escherichia coli K-12) (protein)
chain: MKLAVYSTKQYDKKYLQQVNESFGFELEFFDFLLTEKTAKTANGCEAVCIFVNDDGSRPVLEELKKHGVKYIALRCAGFNNVDLDAAKELGLKVVRVPAYDPEAVAEHAIGMMMTLNRRIHRAYQRTRDANFSLEGLTGFTMYGKTAGVIGTGKIGVAMLRILKGFGMRLLAFDPYPSAAALELGVEYVDLPTLFSESDVISLHCPLTPENYHLLNEAAFEQMKNGVMIVNTSRGALIDSQAAIEALKNQKIGSLGMDVYENERDLFFEDKSNDVIQDDVFRRLSACHNVLFTGHQAFLTAEALTSISQTTLQNLSNLEKGETCPNELV
notes: as for B1
Take B4: the Km amounted to 1800 µM in [5] and 4800 µM in [6].

B5: Lactococcus lactis (L)-lactate dehydrogenase Ll-LdhA (Ll-Ldh), wild type, SEQ ID NO: 6 (Lactococcus lactis subsp. lactis Il1403) (protein)
chain: MADKQRKKVILVGDGAVGSSYAFALVNQGIAQELGIVDLFKEKTQGDAEDLSHALAFTSPKKIYSADYSDASDADLVVLTSGAPQKPGETRLDLVEKNLRITKDVVTKIVASGFKGIFLVAANPVDILTYATWKFSGFPKNRVVGSGTSLDTARFRQALAEKVDVDARSIHAYIMGEHGDSEFAVWSHANVAGVKLEQWFQENDYLNEAEIVELFESVRDAAYSIIAKKGATFYGVAVALARITKAILDDEHAVLPVSVFQDGQYGVSDCYLGQPAVVGAEGVVNPIHIPLNDAEMQKMEASGAQLKAIIDEAFAKEEFASAVKN
As for B5, in series [7], the Km came out at 2700 µM.

B6: Lactococcus lactis (L)-lactate dehydrogenase A Ll-LdhA variant Q85N, SEQ ID No. 30 (Lactococcus lactis subsp. lactis Il1403; Q85N) (protein)
chain: B5 chain with Q85N
In the case of B6, the Michaelis constant (Km) in series [8] came out at 22100 µM; in [9], 29200 µM.

B7: Lactococcus lactis (L)-lactate dehydrogenase A Ll-LdhA variant Q85N I226V (Q85NI226V), SEQ ID No. 32 (Lactococcus lactis subsp. lactis Il1403; I226V/Q85N) (protein)
chain: B5 chain with Q85N, I226V
For the protein B7, the Km in [10] came to 1400 µM; in series [11] it was 3300 µM.
